Where a chain is given by its changes, count along the chain named. Where a SMILES comes first, the peptide text is derived from it.
Legend:
[1] = target: T1, Yeast NMT (partially purified from S. cerevisiae) (Saccharomyces cerevisiae, UniProt P14743); assay: coupled in vitro assay for NMT activity, Yeast NMT; assay type: biochemical; conditions: for Vmax, Yeast NMT: percentage of Vmax with GNAAAARR and myristoyl-CoA; for Km: peptide substrate varied, 570 fold purified preparation
T1 sequence (P14743 1-455): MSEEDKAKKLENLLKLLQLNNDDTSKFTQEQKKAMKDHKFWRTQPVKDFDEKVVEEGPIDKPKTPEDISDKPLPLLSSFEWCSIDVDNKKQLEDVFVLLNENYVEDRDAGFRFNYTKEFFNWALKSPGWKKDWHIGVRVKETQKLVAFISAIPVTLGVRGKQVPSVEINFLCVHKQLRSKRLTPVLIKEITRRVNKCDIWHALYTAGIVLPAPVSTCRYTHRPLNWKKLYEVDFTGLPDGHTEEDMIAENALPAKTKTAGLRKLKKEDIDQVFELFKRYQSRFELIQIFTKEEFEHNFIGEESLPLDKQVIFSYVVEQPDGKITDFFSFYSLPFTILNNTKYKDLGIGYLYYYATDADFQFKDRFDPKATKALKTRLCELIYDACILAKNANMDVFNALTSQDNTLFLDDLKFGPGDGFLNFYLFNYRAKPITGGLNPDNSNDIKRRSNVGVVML
Procedure: (§1) In vitro assay system for NMT activity. To assess the peptide and acyl-CoA substrate specificities of E. coli-derived S. cerevisiae NMT, crude lysates or partially purified enzyme preparations were added to a coupled in vitro assay system [Towler and Glaser, Proc. Natl. Acad. Sci. USA 83, 2812-2816 (1986)]. The first step of this assay involves enzymatic conversion of radiolabeled fatty acids to their CoA thioesters by Pseudomonas acyl-CoA ligase. This ligase is largely nonspecific for fatty acid substrates [Shimizu et al., Anal. Biochem. 107, 193-198 (1980)]. Octapeptide substrates and NMT were then added to produce acylpeptides. Acylpeptides were purified from the reaction mixture by trichloroacetic acid/methanol precipitation and C18 reverse phase HPLC using a linear gradient of acetonitrile in water [Towler and Glaser, Proc. Natl. Acad. Sci. USA 83, 2812-2816 (1986)].
(§2) The peptide Km and Vmax values shown in the above Table I are averages obtained from 4- or 5-point Lineweaver-Burke plots. These plots were produced using data generated in at least three independent in vitro NMT assays. Varying concentrations of peptides were assayed with 15 μM myristate to determine peptide Km and Vmax values. […] Yeast NMT was from a 570 fold purified preparation [Towler et al., Proc. Natl. Acad. Sci. USA 84, 2708-2712 (1987)]. Synthetic peptide substrates are represented by their conventional one letter amino acid code. […] ND=not determined.

[2] = target: T2, 45 kDa E. coli NMT (NMT missing the NH2-terminal 39 residues) (Saccharomyces cerevisiae, UniProt P14743); assay: coupled in vitro assay for NMT activity, 45 kDa E. coli NMT; assay type: biochemical, S. cerevisiae; conditions: for Vmax, 45 kDa E. coli NMT: percentage of Vmax with GNAAAARR and myristoyl-CoA; for Km: peptide substrate varied
T2 construct: S2A lies in the removed part
T2 sequence (P14743 40-455): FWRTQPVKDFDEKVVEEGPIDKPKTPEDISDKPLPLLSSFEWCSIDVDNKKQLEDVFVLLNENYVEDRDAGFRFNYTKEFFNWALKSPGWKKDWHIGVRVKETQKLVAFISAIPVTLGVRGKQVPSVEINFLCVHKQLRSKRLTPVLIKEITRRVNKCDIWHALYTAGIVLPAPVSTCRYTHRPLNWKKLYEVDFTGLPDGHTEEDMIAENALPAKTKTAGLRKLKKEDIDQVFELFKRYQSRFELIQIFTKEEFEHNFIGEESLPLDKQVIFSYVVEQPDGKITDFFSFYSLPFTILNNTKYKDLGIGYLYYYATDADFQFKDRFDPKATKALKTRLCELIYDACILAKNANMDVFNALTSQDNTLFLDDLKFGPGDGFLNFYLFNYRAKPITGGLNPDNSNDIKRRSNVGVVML
Procedure: as §1
To obtain a homogenous preparation of the enzyme, E. coli-produced NMT was further purified by Mono S fast protein liquid chromatography (FPLC).
as §2

[3] = target: T3, E. coli-derived S. cerevisiae NMT (Total E. coli NMT) (Saccharomyces cerevisiae, UniProt P14743, S2A); assay: coupled in vitro assay for NMT activity, Total E. coli NMT; assay type: biochemical; conditions: 15 μM myristate; for Vmax, Total E. coli NMT: peptide substrate, percentage of Vmax with GNAAAARR and myristoyl-CoA; for Km: peptide substrate varied
T3 construct: intact 53 kDa (codon 2 Ser to Ala from cloning) plus 45 kDa truncated form
T3 sequence (P14743 1-455 S2A): T1 sequence (P14743 1-455) with S2A
Procedure: as §1, §2

[4] = target: T4, yeast NMT coexpressed with murine PK-A C-subunit in E. coli strain JM101 (Saccharomyces cerevisiae, UniProt P14743, S2A); assay: [3H]Fatty acid labeling of PK-A C-subunit produced in E. coli coexpressing yeast NMT1; assay type: cell-based, S. cerevisiae; conditions: for incorporation of [3H]fatty acid into the C-subunit of PK-A: E. coli JM101 with NMT1 and wild type Cα plasmids after induction, SDS-PAGE and fluorography
T4 construct: metabolic labeling in cells
Procedure: [^3 H]Fatty acid labeling of PK-A C-subunit produced in E. coli. Four ml cultures of the double transformants were shaken at 37° C. to an OD600 of 0.5 in LB broth+100 μg/ml ampicillin and 100 μg/ml kanamycin sulfate. Isopropyl-β-D-thiogalactopyranoside (IPTG) was then added to a final concentration of 1 mM to induce NMT production (see Results, below). When the cultures reached OD600 =1.0 (approximately 40 min later), nalidixic acid was added to a final concentration of 50 μg/ml to induce C-subunit production (see Results, below). [^3 H]Myristate (New England Nuclear; 39.3 Ci/mmol, 113 μCi added per ml of culture), [^3 H]palmitate (New England Nuclear; 30 Ci/mmol, 143 μCi/ml), or [^3 H]10-(propoxy)decanoate [Heuckeroth and Gordon, Proc. Natl. Acad. Sci. USA 86, 5262-5266 (1989)] (31.7 Ci/mmol, 800 μCi/ml) was added simultaneously with the nalidixic acid. Cultures were shaken for an additional 20 min at 37° C. and the cells were harvested by centrifugation. Lysates were prepared by boiling E. coli contained in the pellet for 10 min in 40 μL of a solution of 125 mM Tris, pH 8.0, 4% SDS, 20% glycerol, 10% β-mercaptoethanol, and 0.2M dithiothreitol. Cell debris was removed by centrifugation and 15 μl aliquots of the supernatant were subjected to SDS-PAGE [Laemmli, Nature 227, 680-685 (1970)] and subsequent fluorography using EN^3 HANCE (New England Nuclear) autoradiography enhancer. For Western blot analyses, 50 μg of reduced and denatured lysate proteins, prepared from unlabeled E. coli producing Gly^2 -C-subunit or Ala^2 -C-subunit, were separated by SDS-PAGE, electroblotted onto nitrocellulose [Burnette, Anal. Biochem. 112, 195-230 (1981)], and the filters probed with polyclonal, monospecific rabbit antisera raised against purified mouse C-subunit. Antigen-antibody complexes were visualized with ^125 I-protein A [Burnette, supra.].

[5] = fatty acyl-CoA substrate, 60 μM GNAAAARR
[6] = peptide substrate, 15 μM myristate

Compound	Vmax, Yeast NMT [1, 6]	Vmax, 45 kDa E. coli NMT [2, 6]	Vmax, Total E. coli NMT [3]	Km [3]	further results
CCCCCCCCCCCCCC(=O)SCCNC(=O)CCNC(=O)[C@H](O)C(C)(C)COP(=O)(O)OP(=O)(O)OC[C@H]1O[C@@H](n2cnc3c(N)ncnc32)[C@H](O)[C@@H]1OP(=O)(O)O [Myristoyl-CoA]					Vmax, Yeast NMT [1, 5]: 100%; Vmax, 45 kDa E. coli NMT [2, 5]: 100%
CCCCCCCCCCCCCCCC(=O)SCCNC(=O)CCNC(=O)[C@H](O)C(C)(C)COP(=O)(O)OP(=O)(O)OC[C@H]1O[C@@H](n2cnc3c(N)ncnc32)[C@H](O)[C@@H]1OP(=O)(O)O [Palmitoyl-CoA]					Vmax, Yeast NMT [1, 5]: 21%; Vmax, 45 kDa E. coli NMT [2, 5]: 22.4%
C[C@H](NC(=O)[C@H](C)NC(=O)[C@H](C)NC(=O)[C@H](CC(N)=O)NC(=O)CN)C(=O)N[C@@H](C)C(=O)N[C@@H](CCCNC(=N)N)C(=O)N[C@@H](CCCNC(=N)N)C(N)=O (H-GNAAAARR-NH2)	100%	100%	100%		Km ([2]; 15 μM myristate): 62.5 µM
ANAAAARR	Not a substrate	Not a substrate	Not a substrate		
GDAAAARR [synthetic octapeptide substrate, one letter amino acid code]	< 2%	< 2%	4.2%	645 µM	
GSSKSKPK [synthetic octapeptide substrate, one letter amino acid code]	43%	52%	33%	48.5 µM	Km ([1]; 15 μM myristate): 40 µM; Km ([2]; 15 μM myristate): 66 µM
CCCOCCCCCCCCCC(=O)O [[^3 H]10-(propoxy)decanoic acid, 10-(propoxy)decanoic acid]					incorporation of [3H]fatty acid into the C-subunit of PK-A [4]: effective alternative substrate for NMT that could be incorporated into the C-subunit of PK-A; incorporation of [3H]fatty acid into the C-subunit of PK-A ([4]; listed as [^3 H]11-oxamyristate): could also be labeled in a Gly^2 dependent manner
GSAAAARR [synthetic octapeptide substrate, one letter amino acid code]	50%		27.6%	697 µM	Km ([1]; 15 μM myristate): 1700 µM
GSAASARR [synthetic octapeptide substrate, one letter amino acid code]	34%		29%	2.1 µM	Km ([1]; 15 μM myristate): 3 µM
CCCCCCCCCCCCCC(=O)O [[^3 H]Myristic acid, Myristic acid]					Pronase E digestion product of the labeled C-subunit ([4]; C18 reverse-phase HPLC): co-migrated with the chemically synthesized [^3 H]myristoylglycine standard; incorporation of [3H]fatty acid into the C-subunit of PK-A [4]: efficiently linked to the Gly^1 residue of the C-subunit; incorporation of [3H]fatty acid into the C-subunit of PK-A ([4]; listed as [^3 H]myristic acid): a 40 kDa protein was metabolically labeled; overall efficiency of NMT-catalyzed linkage of the myristoyl moiety to the C-subunit ([4]; in E. coli, estimated from Western blot, incorporated label and specific activity): ~100%
GNAADARR [synthetic octapeptide substrate, one letter amino acid code]	< 2%	< 2%	4.9%	503 µM	
ASSKSKPK [synthetic octapeptide, one letter amino acid code]	Not a substrate	Not a substrate	Not a substrate		
GPAAAARR [synthetic octapeptide substrate, one letter amino acid code]	< 2%	< 2%	21.6%	7100 µM	
MGNAAAARR	Not a substrate	Not a substrate	Not a substrate		
C[C@H](NC(=O)[C@H](C)NC(=O)[C@H](CC(N)=O)NC(=O)CN)C(=O)N[C@@H](CO)C(=O)N[C@@H](C)C(=O)N[C@@H](CCCNC(=N)N)C(=O)N[C@@H](CCCNC(=N)N)C(N)=O (H-GNAASARR-NH2)	3%	4.9%	3.6%		reduction in apparent Km ([2]; relative to GNAAAARR-NH2, Mono S purified 45 kDa NMT): 100 fold
GYAAAARR [synthetic octapeptide, one letter amino acid code]	Not a substrate	< 2%	< 2%		
CCCOCCCCCCCCCC(=O)SCCNC(=O)CCNC(=O)[C@H](O)C(C)(C)COP(=O)(O)OP(=O)(O)OC[C@H]1O[C@@H](n2cnc3c(N)ncnc32)[C@H](O)[C@@H]1OP(=O)(O)O [11-oxamyristoyl-CoA]					Vmax, Yeast NMT [1, 5]: 270%; Vmax, 45 kDa E. coli NMT [2, 5]: 450%

Reference: US5436138A, “Method for protein N-myristoylation” (Washington University, priority 1993, dated 1995)
